Patent publication US20180265551A1 (GlaxoSmithKline, published 2018)

Biological target: the molecule itself
Assay: size exclusion chromatography and negative stain EM (self-association of trimers)

B1: gB-698 (CMV gB ectodomain residues 1-698 with fusion loop, furin site and C246S mutations, C-terminal 6-His tag) (other)
chain: VSSSSTRGTSATHSHHSSHTTSAAHSRSGSVSQRVTSSQTVSHGVNETIYNTTLKYGDVVGVNTTKYPYRVCSMAQGTDLIRFERNIVCTSMKPINEDLDEGIMVVYKRNIVAHTFKVRVYQKVLTFRRSYAYHRTTYLLGSNTEYVAPPMWEIHHINSHSQCYSSYSRVIAGTVFVAYHRDSYENKTMQLMPDDYSNTHSTRYVTVKDQWHSRGSTRLYRETSNLNCMVTITTARSKYPYHFFATSTGDVVDISPFYNGTNRNASYFGENADKFFIFPNYTIVSDFGRPNSALETHRLVAFLERADSVISWDIQDEKNVTCQLTFWEASERTIRSEAEDSYHFSSAKMTATFLSKKQEVNMSDSALDCVRDEAINKLQQIFNTSYNQTYEKYGNVSVFETTGGLVVFWQGIKQKSLVELERLANRSSLNLTHNSTKSSTDGNNATHLSNMESVHNLVYAQLQFTYDTLRGYINRALAQIAEAWCVDQRRTLEVFKELSKINPSAILSAIYNKPIAARFMGDVLGLASCVTINQTSVKVLRDMNVKESPGRCYSRPVVIFNFANSSYVQYGQLGEDNEILLGNHRTEECQLPSLKIFIAGNSAYEYVDYLFKRMIDLSSISTVDSMIALDIDPLENTDFRVLELYSQKELRSSNVFDLEEIMREFNSYKQRVKYVEHHHHHH
notes: Expressed in 293GnTI- cells; The trimer pairs into a dimeric trimer of six subunits
  binding result: binds
